From the supplement of paper PMC10065799, “High-throughput profiling of sequence recognition by tyrosine kinases and SH2 domains using bacterial peptide display” (eLife, 2023)

Assays:
Hck = Hck (UniProt P08631); test: phosphorylation enrichment, bacterial display (enrichment ratio); higher = better substrate or ligand; peptides without Tyr show the background
Jak2 = Jak2 (UniProt O60674); test: as above
Fes = Fes (UniProt P07332); test: as above
FGFR1 = FGFR1 (UniProt P11362); test: as above
Fer (mouse) = test: as above
EPHB2 = EPHB2 (UniProt P29323); test: as above
Chain of EPHB2 (P29323 whole entry, looked up): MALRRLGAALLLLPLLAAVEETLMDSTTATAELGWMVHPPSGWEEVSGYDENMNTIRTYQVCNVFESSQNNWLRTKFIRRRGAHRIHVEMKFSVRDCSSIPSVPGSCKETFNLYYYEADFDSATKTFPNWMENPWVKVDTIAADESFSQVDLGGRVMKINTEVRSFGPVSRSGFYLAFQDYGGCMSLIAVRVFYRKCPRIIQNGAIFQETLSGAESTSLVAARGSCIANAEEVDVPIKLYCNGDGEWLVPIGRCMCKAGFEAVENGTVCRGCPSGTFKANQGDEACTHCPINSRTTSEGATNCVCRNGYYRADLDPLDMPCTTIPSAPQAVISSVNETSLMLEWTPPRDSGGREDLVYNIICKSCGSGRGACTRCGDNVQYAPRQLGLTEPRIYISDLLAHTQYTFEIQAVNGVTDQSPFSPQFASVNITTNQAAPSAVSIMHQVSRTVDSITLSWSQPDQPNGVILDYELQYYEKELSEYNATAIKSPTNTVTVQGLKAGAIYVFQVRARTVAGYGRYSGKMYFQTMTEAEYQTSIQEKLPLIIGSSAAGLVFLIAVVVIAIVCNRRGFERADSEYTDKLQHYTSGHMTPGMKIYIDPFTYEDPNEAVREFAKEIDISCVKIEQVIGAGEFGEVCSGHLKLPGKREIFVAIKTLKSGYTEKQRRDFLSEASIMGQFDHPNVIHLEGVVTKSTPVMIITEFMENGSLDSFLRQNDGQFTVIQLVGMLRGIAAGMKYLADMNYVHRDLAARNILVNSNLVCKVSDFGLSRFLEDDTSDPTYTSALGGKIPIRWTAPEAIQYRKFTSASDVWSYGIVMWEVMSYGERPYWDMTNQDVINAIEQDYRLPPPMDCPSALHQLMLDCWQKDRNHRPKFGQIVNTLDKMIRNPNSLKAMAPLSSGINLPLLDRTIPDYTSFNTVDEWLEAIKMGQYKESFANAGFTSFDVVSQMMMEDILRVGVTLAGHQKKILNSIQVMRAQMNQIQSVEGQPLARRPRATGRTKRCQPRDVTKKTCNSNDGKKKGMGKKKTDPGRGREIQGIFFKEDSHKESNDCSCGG

EPHB1 = EPHB1 (UniProt P54762); test: as above
Chain of EPHB1 (P54762 whole entry, looked up): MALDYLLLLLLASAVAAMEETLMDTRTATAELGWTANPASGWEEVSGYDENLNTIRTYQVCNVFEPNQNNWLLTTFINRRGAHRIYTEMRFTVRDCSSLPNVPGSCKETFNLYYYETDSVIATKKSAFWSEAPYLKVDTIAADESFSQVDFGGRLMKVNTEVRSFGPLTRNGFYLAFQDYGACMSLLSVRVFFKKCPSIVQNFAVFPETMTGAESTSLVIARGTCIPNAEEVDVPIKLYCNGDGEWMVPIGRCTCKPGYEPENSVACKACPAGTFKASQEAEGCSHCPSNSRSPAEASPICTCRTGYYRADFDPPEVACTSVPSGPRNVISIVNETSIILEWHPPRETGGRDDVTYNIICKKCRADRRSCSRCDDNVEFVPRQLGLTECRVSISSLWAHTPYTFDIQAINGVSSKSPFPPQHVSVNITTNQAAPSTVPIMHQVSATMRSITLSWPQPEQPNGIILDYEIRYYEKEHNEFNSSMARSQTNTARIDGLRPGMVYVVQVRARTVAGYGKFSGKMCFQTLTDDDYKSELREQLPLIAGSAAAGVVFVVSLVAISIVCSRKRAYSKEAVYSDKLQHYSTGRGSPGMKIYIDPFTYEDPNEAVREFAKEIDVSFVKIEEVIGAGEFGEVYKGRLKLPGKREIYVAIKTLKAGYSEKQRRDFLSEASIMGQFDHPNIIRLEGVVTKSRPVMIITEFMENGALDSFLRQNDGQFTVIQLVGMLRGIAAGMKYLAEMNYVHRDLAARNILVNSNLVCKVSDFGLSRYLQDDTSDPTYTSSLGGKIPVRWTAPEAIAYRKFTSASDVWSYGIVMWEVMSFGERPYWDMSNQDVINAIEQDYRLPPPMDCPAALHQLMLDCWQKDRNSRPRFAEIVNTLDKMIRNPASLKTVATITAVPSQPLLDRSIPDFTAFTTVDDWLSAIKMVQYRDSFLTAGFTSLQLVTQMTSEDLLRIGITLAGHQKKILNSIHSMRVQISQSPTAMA

MERTK = MERTK (UniProt Q12866); test: as above
Chain of MERTK (Q12866 whole entry, looked up): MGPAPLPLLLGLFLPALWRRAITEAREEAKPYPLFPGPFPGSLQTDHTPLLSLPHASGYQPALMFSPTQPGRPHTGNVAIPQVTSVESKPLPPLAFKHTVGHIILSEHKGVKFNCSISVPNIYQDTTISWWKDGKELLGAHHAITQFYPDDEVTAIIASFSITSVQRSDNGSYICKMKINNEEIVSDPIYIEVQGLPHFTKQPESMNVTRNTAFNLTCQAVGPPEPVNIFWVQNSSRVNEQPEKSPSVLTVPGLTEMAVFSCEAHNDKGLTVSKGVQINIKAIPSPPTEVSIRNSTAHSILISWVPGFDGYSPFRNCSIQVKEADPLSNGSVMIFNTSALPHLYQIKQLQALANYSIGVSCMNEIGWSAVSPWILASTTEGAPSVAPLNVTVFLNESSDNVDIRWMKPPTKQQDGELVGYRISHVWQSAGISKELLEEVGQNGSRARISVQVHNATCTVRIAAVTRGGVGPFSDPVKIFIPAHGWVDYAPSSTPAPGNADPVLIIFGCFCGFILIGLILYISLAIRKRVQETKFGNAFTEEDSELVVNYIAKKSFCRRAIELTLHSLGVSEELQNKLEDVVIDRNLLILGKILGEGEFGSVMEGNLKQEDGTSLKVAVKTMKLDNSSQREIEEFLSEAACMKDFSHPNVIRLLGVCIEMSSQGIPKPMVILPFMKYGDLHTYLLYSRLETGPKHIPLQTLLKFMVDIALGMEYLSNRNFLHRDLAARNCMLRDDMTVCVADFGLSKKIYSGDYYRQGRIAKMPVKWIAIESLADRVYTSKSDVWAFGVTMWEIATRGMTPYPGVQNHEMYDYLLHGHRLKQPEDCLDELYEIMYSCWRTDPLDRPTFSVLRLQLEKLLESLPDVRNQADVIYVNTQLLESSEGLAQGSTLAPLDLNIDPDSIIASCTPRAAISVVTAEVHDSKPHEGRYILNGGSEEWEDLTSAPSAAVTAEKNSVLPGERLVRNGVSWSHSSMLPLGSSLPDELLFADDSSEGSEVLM

AncSZ = test: as above
FGFR3 = FGFR3 (UniProt P22607); test: as above
c-Src = test: as above
c-Abl (mouse) = test: as above
Fyn = Fyn (UniProt P06241); test: as above
c-Src SH2 = test: SH2 binding enrichment of the phosphorylated peptide, bacterial display (enrichment ratio); higher = better substrate or ligand; peptides without Tyr show the background
SHP2-C SH2 = test: as above
Grb2 SH2 = Grb2 SH2 (UniProt P62993); test: as above
Chain of Grb2 SH2 (P62993 whole entry, looked up, the tested form may be a part): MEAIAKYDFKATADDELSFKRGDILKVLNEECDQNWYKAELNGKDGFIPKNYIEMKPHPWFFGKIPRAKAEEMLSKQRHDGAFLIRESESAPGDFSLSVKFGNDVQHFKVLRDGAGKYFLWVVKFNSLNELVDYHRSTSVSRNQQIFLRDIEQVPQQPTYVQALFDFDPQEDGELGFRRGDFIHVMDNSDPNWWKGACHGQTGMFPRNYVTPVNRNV
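For SH2 binding enrichment of the phosphorylated peptide, bacterial display in this document: peptide library displayed on the E. coli surface as eCPX fusions, selected cells deep-sequenced, score is each peptide's frequency after selection divided by its frequency in the input.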
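For phosphorylation enrichment, bacterial display in this document: 11-residue human phosphosite peptides and single-mutation variants displayed on the E. coli surface, counted by deep sequencing, each peptide's frequency after selection divided by its frequency in the unselected input library; frequency after pTyr selection over input frequency; kinase dosed for 20-30% of maximal phosphorylation in three min.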

Chain of FGFR1 (P11362 whole entry, looked up): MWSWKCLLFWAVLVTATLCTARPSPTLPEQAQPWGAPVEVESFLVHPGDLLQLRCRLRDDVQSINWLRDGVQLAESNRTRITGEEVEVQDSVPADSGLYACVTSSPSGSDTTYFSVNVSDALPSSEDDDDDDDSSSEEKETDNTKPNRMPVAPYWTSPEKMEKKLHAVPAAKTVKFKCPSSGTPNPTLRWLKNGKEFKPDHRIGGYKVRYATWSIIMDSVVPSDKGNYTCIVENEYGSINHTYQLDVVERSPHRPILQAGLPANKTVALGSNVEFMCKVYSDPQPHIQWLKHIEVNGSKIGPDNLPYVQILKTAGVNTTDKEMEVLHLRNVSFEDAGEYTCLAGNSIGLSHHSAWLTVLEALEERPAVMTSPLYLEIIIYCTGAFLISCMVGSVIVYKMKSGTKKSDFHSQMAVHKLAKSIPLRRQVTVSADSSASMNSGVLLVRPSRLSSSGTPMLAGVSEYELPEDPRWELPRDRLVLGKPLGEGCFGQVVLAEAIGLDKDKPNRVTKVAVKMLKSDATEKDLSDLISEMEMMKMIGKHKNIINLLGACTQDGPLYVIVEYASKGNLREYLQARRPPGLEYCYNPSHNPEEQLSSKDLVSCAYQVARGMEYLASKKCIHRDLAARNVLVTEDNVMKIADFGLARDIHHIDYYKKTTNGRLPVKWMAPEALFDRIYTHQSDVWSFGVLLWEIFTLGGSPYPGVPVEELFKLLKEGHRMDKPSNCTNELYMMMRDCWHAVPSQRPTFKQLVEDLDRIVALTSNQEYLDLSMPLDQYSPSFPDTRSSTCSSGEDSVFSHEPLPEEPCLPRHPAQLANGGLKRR
Chain of Hck (P08631 whole entry, looked up): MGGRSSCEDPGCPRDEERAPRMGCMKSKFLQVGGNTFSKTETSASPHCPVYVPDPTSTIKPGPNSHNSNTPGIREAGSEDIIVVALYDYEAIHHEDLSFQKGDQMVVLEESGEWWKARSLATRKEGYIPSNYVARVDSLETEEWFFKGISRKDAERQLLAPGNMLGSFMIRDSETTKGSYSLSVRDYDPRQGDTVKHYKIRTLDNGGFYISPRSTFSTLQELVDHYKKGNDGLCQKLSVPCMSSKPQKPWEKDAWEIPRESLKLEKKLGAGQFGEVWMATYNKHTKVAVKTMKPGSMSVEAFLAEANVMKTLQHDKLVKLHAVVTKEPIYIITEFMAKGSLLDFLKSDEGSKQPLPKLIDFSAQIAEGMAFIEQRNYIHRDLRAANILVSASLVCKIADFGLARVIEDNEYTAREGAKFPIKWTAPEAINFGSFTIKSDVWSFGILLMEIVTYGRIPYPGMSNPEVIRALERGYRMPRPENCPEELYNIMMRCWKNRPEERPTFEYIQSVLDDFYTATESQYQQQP

Row | Sequence | phosphorylation enrichment (Hck) | phosphorylation enrichment (Jak2) | phosphorylation enrichment (Fes) | phosphorylation enrichment (FGFR1) | phosphorylation enrichment (Fer (mouse)) | phosphorylation enrichment (EPHB2) | phosphorylation enrichment (EPHB1) | phosphorylation enrichment (MERTK) | phosphorylation enrichment (AncSZ) | phosphorylation enrichment (FGFR3) | phosphorylation enrichment (c-Src) | phosphorylation enrichment (c-Abl (mouse)) | phosphorylation enrichment (Fyn) | SH2 binding enrichment (c-Src SH2) | SH2 binding enrichment (SHP2-C SH2) | SH2 binding enrichment (Grb2 SH2)
1 | ACLSLYGGFVE [MVD_Y164_R161L] | 3.83 | 1.92 | 2.02 | 0.681 | 0.817 | 1.13 | 1.21 | 0.607 | 1.67 | 1.31 | 4.75 | 1.46 | 5.43 | 0.464 | 0.661 | 0.834
2 | ADAHHYLCKEV [JAK2_Y382] | 0.549 | 0.837 | 0.879 | 0.588 | 0.488 | 0.752 | 0.851 | 0.429 | 0.678 | 0.554 | 0.543 | 0.644 | 0.485 | 0.518 | 0.626 | 0.849
3 | ADARMYGVLPW [PLP1_Y207] | 9.33 | 0.7 | 0.84 | 0.511 | 0.594 | 2.48 | 0.945 | 3.38 | 0.793 | 0.545 | 6.65 | 1.24 | 9.58 | 0.443 | 0.7 | 1.05
4 | ADEEEYEIIAA [FEStide_E_2014] | 0.654 | 1.45 | 1.32 | 0.635 | 0.73 | 0.683 | 0.662 | 0.564 | 1.74 | 1.08 | 0.724 | 1.09 | 0.619 | 0.521 | 0.97 | 0.711
5 | ADGLEYPRTGL [MMUT_Y287_S288P] | 0.47 | 0.495 | 0.835 | 0.414 | 0.47 | 0.55 | 0.425 | 0.319 | 0.722 | 0.59 | 0.288 | 0.528 | 0.508 | 0.465 | 0.598 | 0.679
6 | ADLVQYFMEHH [PTPN11_Y80_E76D_YF] | 0.53 | 1 | 1.06 | 0.501 | 0.46 | 0.545 | 0.654 | 0.394 | 1.1 | 0.708 | 0.517 | 0.8 | 0.784 | 0.612 | 0.961 | 0.902
7 | ADPQEYIPLPA [JAKtide_2014] | 0.549 | 0.865 | 0.983 | 0.75 | 0.457 | 0.49 | 0.529 | 0.425 | 0.904 | 0.693 | 0.468 | 0.628 | 0.512 | 0.571 | 0.809 | 1
8 | ADVLDYIKALN [HPRT1_Y81_L78V] | 0.489 | 0.748 | 0.814 | 0.532 | 0.415 | 0.534 | 0.459 | 0.542 | 0.756 | 0.629 | 0.463 | 0.467 | 0.507 | 0.553 | 0.869 | 0.76
9 | AEMKRYSESSS [RAI14_Y869_A870S] | 0.37 | 0.678 | 0.638 | 0.681 | 0.38 | 0.329 | 0.308 | 0.337 | 0.524 | 0.523 | 0.382 | 0.43 | 0.503 | 0.541 | 0.767 | 0.744
10 | AEPPDYSPVTQ [ADGRG2_Y285_H290Q] | 0.557 | 0.95 | 1.16 | 0.514 | 0.546 | 0.626 | 0.435 | 0.342 | 1.46 | 0.717 | 0.522 | 0.99 | 0.444 | 0.441 | 0.93 | 0.82
11 | AFDNLYYWDQD [ERBB2_Y1221] | 5.36 | 1.55 | 2.42 | 9.23 | 3.07 | 4.41 | 5.88 | 7.32 | 2.31 | 9.6 | 5.67 | 0.81 | 6.31 | 0.446 | 0.698 | 0.807
12 | AFLEDYFTSTE [SRC_Y522] | 0.549 | 1.46 | 1.83 | 1.16 | 0.572 | 0.606 | 0.598 | 0.578 | 1.91 | 1.42 | 0.783 | 1.31 | 0.54 | 0.578 | 0.959 | 0.967
13 | AFRRGYFDEEM [PLEC_Y2971_YF] | 0.599 | 1.7 | 1.29 | 0.633 | 0.445 | 0.616 | 0.514 | 0.551 | 1.58 | 0.673 | 0.6 | 0.763 | 0.622 | 0.636 | 0.334 | 0.73
14 | AGQEEYSAMRD [HRAS_Y64] | 0.498 | 0.788 | 0.931 | 0.477 | 0.429 | 0.547 | 0.507 | 0.418 | 0.879 | 0.591 | 0.456 | 0.678 | 0.462 | 0.679 | 0.643 | 0.816
15 | AHAGEYGAEAL [HBA1_Y25] | 0.464 | 0.66 | 0.816 | 0.35 | 0.382 | 0.394 | 0.368 | 0.343 | 0.675 | 0.517 | 0.392 | 0.629 | 0.387 | 0.396 | 0.676 | 0.683
16 | AHAGEYGEEAL [HBA1_Y25_A27E] | 0.821 | 1.35 | 1.47 | 0.66 | 0.615 | 0.736 | 0.664 | 0.544 | 1.25 | 0.793 | 0.582 | 1.01 | 0.576 | 0.473 | 0.599 | 0.745
17 | AISEGYKDFRA [CDA_Y79_V75I] | 0.405 | 0.617 | 0.638 | 0.425 | 0.313 | 0.415 | 0.353 | 0.382 | 0.617 | 0.524 | 0.499 | 0.622 | 0.323 | 0.31 | 0.536 | 0.829

Row | Sequence | phosphorylation enrichment (Hck) | phosphorylation enrichment (Jak2) | phosphorylation enrichment (Fes) | phosphorylation enrichment (FGFR1) | phosphorylation enrichment (Fer (mouse)) | phosphorylation enrichment (EPHB2) | phosphorylation enrichment (EPHB1) | phosphorylation enrichment (MERTK) | phosphorylation enrichment (AncSZ) | phosphorylation enrichment (FGFR3) | phosphorylation enrichment (c-Src) | phosphorylation enrichment (c-Abl (mouse)) | phosphorylation enrichment (Fyn) | SH2 binding enrichment (c-Src SH2) | SH2 binding enrichment (SHP2-C SH2) | SH2 binding enrichment (Grb2 SH2)
18 | AKRKNYAPVTM [CFAP47_Y557_A561T] | 0.371 | 0.351 | 0.518 | 0.418 | 0.286 | 0.364 | 0.365 | 0.431 | 0.459 | 0.34 | 0.445 | 0.454 | 0.387 | 1.19 | 1.16 | 1.03
19 | ALETLYKKAVK [CC2D2A_Y381_E376A] | 0.396 | 0.603 | 0.864 | 0.405 | 0.446 | 0.366 | 0.348 | 0.338 | 0.559 | 0.475 | 0.307 | 0.463 | 0.342 | 0.511 | 0.599 | 0.889
20 | ALIKAYVKAVA [SMN1_Y43_D44V] | 0.464 | 1.12 | 0.995 | 0.623 | 0.445 | 0.534 | 0.65 | 0.481 | 0.966 | 0.639 | 0.557 | 0.68 | 0.462 | 0.412 | 0.676 | 0.756
21 | ALVDTYCRHNF [HLA-DRB1_Y107_A103L_YF] | 0.577 | 0.847 | 0.935 | 0.472 | 0.588 | 0.613 | 0.55 | 0.549 | 0.782 | 0.682 | 0.538 | 0.683 | 0.454 | 0.711 | 0.845 | 0.991
22 | ANARMYGVLPW [PLP1_Y207_D203N] | 6.06 | 0.616 | 0.783 | 0.462 | 0.474 | 0.676 | 0.513 | 0.734 | 0.74 | 0.506 | 3.85 | 0.846 | 4.99 | 0.503 | 0.749 | 0.814
23 | APQFTYTQGGQ [FLNA_Y1763_A1764T_YF] | 0.395 | 0.552 | 0.681 | 0.482 | 0.423 | 0.536 | 0.444 | 0.367 | 0.602 | 0.582 | 0.42 | 0.444 | 0.5 | 0.597 | 0.503 | 0.75
24 | AQPHTYEEPGR [EPHA8_Y616_E612Q] | 0.46 | 0.83 | 0.729 | 0.459 | 0.458 | 0.577 | 0.519 | 0.394 | 0.74 | 0.46 | 0.452 | 0.465 | 0.481 | 14.5 | 0.794 | 1.08
25 | AQQPIYIRVEG [NLRP7_Y318_V319I] | 0.733 | 0.955 | 1.18 | 0.652 | 0.588 | 1.2 | 1.3 | 0.641 | 1.12 | 0.702 | 0.793 | 0.725 | 0.525 | 0.591 | 0.614 | 1.03
26 | ARKWGYTVKGI [OAT_Y158] | 0.354 | 0.668 | 0.912 | 0.437 | 0.352 | 0.448 | 0.503 | 0.377 | 0.914 | 0.517 | 0.327 | 0.724 | 0.423 | 0.479 | 0.782 | 0.779
27 | ARRHPYFYAPE [ALB_Y172] | 0.575 | 0.8 | 0.766 | 1.87 | 0.58 | 0.553 | 0.488 | 0.893 | 0.883 | 1.08 | 0.972 | 0.605 | 0.641 | 0.3 | 0.47 | 0.61
28 | ARSHIYTFASC [MEFV_Y741] | 0.671 | 0.866 | 1 | 0.491 | 0.563 | 0.533 | 0.488 | 0.808 | 0.932 | 0.653 | 1.3 | 0.849 | 1.41 | 1.66 | 0.763 | 0.834
29 | ARVANYHRDGP [CAT_Y386_Q387H] | 0.36 | 0.491 | 0.514 | 0.519 | 0.372 | 0.378 | 0.309 | 0.385 | 0.523 | 0.394 | 0.395 | 0.457 | 0.44 | 0.49 | 0.769 | 0.776
30 | ASELGYQFQAI [UROD_Y133_V134Q] | 0.468 | 0.679 | 0.92 | 0.525 | 0.493 | 0.5 | 0.362 | 0.387 | 0.77 | 0.59 | 0.46 | 0.596 | 0.407 | 0.826 | 0.652 | 0.795
31 | ASKEPYFVHCI [MYO1D_Y585_R588H_YF] | 0.475 | 0.675 | 0.881 | 0.583 | 0.56 | 0.481 | 1.05 | 0.427 | 0.846 | 0.882 | 0.523 | 0.611 | 0.503 | 0.715 | 0.886 | 0.982
32 | ASTDFYKRGDF [PDHA1_Y243_YF] | 0.39 | 0.749 | 0.795 | 0.413 | 0.475 | 0.375 | 0.374 | 0.345 | 0.719 | 0.431 | 0.52 | 0.515 | 0.325 | 0.5 | 0.611 | 0.614
33 | ATHRSYDSDNP [MMUT_Y146_G145S] | 0.476 | 0.543 | 0.777 | 0.593 | 0.422 | 0.459 | 0.346 | 0.57 | 1.13 | 0.511 | 0.447 | 0.518 | 0.47 | 0.651 | 0.509 | 1.07
